Data as given in paper PMC2172684.

Biological target: importin α (UniProt P52292)
Experiment: ELISA

Row | Substance | Kd [nM]
1 | importin β L612D/F688A (m-C) (from UniProt Q14974 1-876) (natural protein) | 2.2
2 | importin β m-C (304–876) (from UniProt Q14974 304-876) (domain or fragment) | 4.3
3 | wild-type importin β (from UniProt Q14974 1-876) (natural protein) | 0.9

The next lines start with the values.

Row | Kd [nM] | Substance
4 | 2.5 | importin β (304–876) (from UniProt Q14974 304-876) (domain or fragment)
5 | 1.1 | importin β I178A/F217A/Y255A/I263R (m-N) (from UniProt Q14974 1-876) (natural protein)
6 | 2.1 | importin β m-N/m-C (from UniProt Q14974 1-876) (natural protein)

Biological target: importin α (UniProt P52292)
Experiment: ELISA
Remark: another data set of the same source

Row | Substance | Kd [nM]
7 | importin β E214A (from UniProt Q14974 1-876) (natural protein) | 1.3
8 | importin β I178D (from UniProt Q14974 1-876) (natural protein) | 1.2
9 | importin β I263R (from UniProt Q14974 1-876) (natural protein) | 0.9
10 | wild-type importin β (from UniProt Q14974 1-876) (natural protein) | 0.9

Continued, values first:

Row | Kd [nM] | Substance
11 | 1.1 | importin β I178A (from UniProt Q14974 1-876) (natural protein)
12 | 1.2 | importin β I178A/F217A/Y255A/I263R (m-N) (from UniProt Q14974 1-876) (natural protein)
13 | 1.1 | importin β I178D/Y255A (from UniProt Q14974 1-876) (natural protein)

Biological target: GST–RanGTP (UniProt P62826)
Experiment: ELISA

Row | Kd [nM] | Substance
14 | 3.3 | wild-type importin β (from UniProt Q14974 1-876) (natural protein; other documents disagree on this pair)
